Legend:
[1] = system: brain; assay: Second cross-species screen, synthetic library passage 3 in C57Bl/6 mice; type: in vivo; settings: third passage (P3)
Method: (§1) There were approximately 500 variants in this synthetic library. This synthetic library was then injected back into both strains of mice (C57Bl/6 and BALB/c; passage 3). RNA was recovered from the mouse brains, RT-PCR amplification was performed, and fold-enrichment relative to wild-type AAV9 was calculated by NGS analysis, which is provided in Table 11.

[2] = system: brain; assay: Second cross-species screen, synthetic library passage 3 in BALB/c mice; type: in vivo; settings: for Fold enrichment over AAV9 in BALB/c: third passage (P3)
Method: as §1

[3] = system: brain; assay: Second cross-species screen, passage 2 in BALB/c mice after first passage in NHPs; type: in vivo
Method: (§2) A second cross-species evolution screen was performed using an AAV capsid variant library with a modification in loop IV introduced as described above and passaging it once through NHPs (passage 1) and then subsequently injected it into two different strains of mice (passage 2), C57Bl/6 and BALB/c. The fold-enrichment for each variant in the brain of each mouse species was calculated by systematic NGS enrichment analysis following RNA recovery and RT-PCR amplification. The fold enrichment values in the second passage in mice were compared to those fold enrichment values from the second pass that was performed in NHPs as described above. […] Further, 10 of these 12 variants comprised the SPH motif and a positive residue in one of the next three subsequent residues (Table 10).

[4] = system: brain; assay: Second cross-species screen, passage 2 in C57Bl/6 mice after first passage in NHPs; type: in vivo; settings: P2 in C57Bl/6 after first passage in NHPs
Method: as §2

[5] = target: T1, isoform 1 (Alkaline phosphatase, placental-like 2 (ALPPL2)) (Homo sapiens, UniProt P10696); assay: Transduction assay in HEK 293T cells expressing isoform 1; type: cell-based; settings: for Luciferase Activity (RLU): Table 30, Isoform 1 transfected cells; for increase in transduction in cells expressing isoform 1: luciferase activity (RLU)
T1 construct: expressed in transfected cells; host or cells: HEK 293T
T1 sequence (P10696 20-503): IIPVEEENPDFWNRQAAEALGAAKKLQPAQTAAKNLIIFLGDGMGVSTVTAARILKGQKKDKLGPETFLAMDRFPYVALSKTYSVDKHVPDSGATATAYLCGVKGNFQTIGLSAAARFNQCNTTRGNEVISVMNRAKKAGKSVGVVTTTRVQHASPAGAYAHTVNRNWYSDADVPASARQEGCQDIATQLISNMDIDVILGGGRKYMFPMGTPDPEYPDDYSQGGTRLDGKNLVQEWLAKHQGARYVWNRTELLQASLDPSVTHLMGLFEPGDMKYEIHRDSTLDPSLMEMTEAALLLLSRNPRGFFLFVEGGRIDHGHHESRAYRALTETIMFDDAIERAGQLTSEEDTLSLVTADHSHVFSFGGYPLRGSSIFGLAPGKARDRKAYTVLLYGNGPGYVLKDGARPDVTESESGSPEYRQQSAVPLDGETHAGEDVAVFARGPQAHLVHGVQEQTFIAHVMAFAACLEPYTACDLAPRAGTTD
From the text: Three isoforms of ALPL exist, isoform 1 (Alkaline phosphatase, placental-like 2 (ALPPL2), NM_031313, which is incorporated by reference herein), isoform 2 (alkaline phosphatase, placental (ALPP), NM_001632, which is incorporated by reference herein), and isoform 3 (alkaline phosphatase, intestinal (ALPLI), NM_001631, which is incorporated by reference herein), that can also be expressed on cell surfaces via a GPI-anchor. Isoform 1 is 56.25% identical and 72.54% similar (gaps: 4.17%) to ALPL, isoform 2 is 54.96% identical and 71.37% similar (gaps: 2.29%) to ALPL, and isoform 3 is 55.98% identical and 72.11% similar (gaps: 3.04%) to ALPL. The transduction assay described above was repeated with the three isoforms. HEK 293T cells were transfected via calcium phosphate transfection with a plasmid expressing ALPL, isoform 1 of ALPL, isoform 2 of ALPL, isoform 3 of ALPL, an AAVR positive control, or a pCMV6 negative control. […] At 24-hours post-transduction, luciferase activity (RLU) was measured to quantify AAV cellular transduction.

[6] = system: brains and tissues (liver quadriceps, and heart); assay: NGS fold enrichment of capsid variants in marmosets; type: in vivo, marmosets (Callithrix jacchus); settings: 2E13 vg/kg IV, 28 days
From the text: (§3) To investigate tropism in marmoset monkeys, AAV particles comprising the TTM-001 capsid variant, the TTM-002 capsid variant, an AAV9 capsid variant comprising SEQ ID NO: 966, or an AAV9 control, were intravenously injected into NHPs (n=2, >10 months of age) at a dose of 2E13 vg/kg (8.75E12 vg/mL). After 28-days in life, the brains and tissues (liver quadriceps, and heart) of the NHPs were collected and RNA was extracted. Following RNA recovery and RT-PCR amplification, a systematic NGS enrichment analysis was performed to calculate the fold enrichment ratio relative to the AAV9 wild-type control.

[7] = system: HEK 293T cells transfected with pCMV6 negative control; assay: Binding and internalization assay in HEK 293T cells transfected with pCMV6 negative control (viral genomes); type: cell-based; settings: pCMV6 transfected cells (negative control, reference)
Method: Binding and internalization of AAV capsid variants comprising the TTM-001 capsid variant, the TTM-002 capsid variant, or the AAV9 control capsid was also investigated in cells engineered to express ALPL. HEK 293T cells were transfected via calcium phosphate transfection with a plasmid expressing ALPL, an AAVR positive control, or a pCMV6 negative control. At 24 hours post-transfection, the HEK 293T cells expressing the ALPL receptor were incubated with an AAV particle comprising the TTM-001 capsid variant, the TTM-002 capsid variant, or an AAV9 control capsid protein, expressing a GFP payload. At 2 or 3-hours post-incubation, cells were washed to remove unbound AAV particles and DNA was extracted to quantify viral genomes.

[8] = system: brains and tissues (liver, DRG, quadriceps, and heart); assay: NGS fold enrichment of capsid variants in African green monkeys; type: in vivo, African green monkeys (Chlorocebus sabaeus); settings: 2E13 vg/kg IV, 14 days
From the text: as §3, with “African green” for “marmoset”, “control under the control of a synapsin promoter,” for “control,”, “3-12 years” for “>10 months”, “vg/kg.” for “vg/kg (8.75E12 vg/mL).”, “14-days” for “28-days”, “(liver, DRG,” for “(liver”

[9] = P3, average of BALB/c and C57Bl/6

Molecule	Fold enrichment over AAV9 in C57Bl/6 [1] [fold]	Average fold enrichment over AAV9 [2, 9] [fold]	Average fold enrichment over AAV9 ([2]; P3, average of BALB/c and C57Bl/6, listed as GSGSPHSKAQNQQT) [fold]	Fold enrichment over AAV9 in BALB/c [2] [fold]	Fold enrichment over AAV9 in BALB/c P2 [3] [fold]	Fold enrichment over AAV9 in C57Bl/6 P2 [4] [fold]	Luciferase Activity (RLU) [5]	increase in transduction in cells expressing isoform 1 [5]	expression relative to AAV9 in the heart of marmosets [6]	fold increase in expression relative to AAV9 in the brain of marmosets [6] [fold]	Fold change in viral gene expression (2^-ΔΔCT) relative to pCMV6 transfected cells [7] [fold]	expression relative to AAV9 in the heart of African green monkeys [8]	fold increase in expression relative to AAV9 in the brain of African green monkeys [8] [fold]	Average fold enrichment over AAV9 ([2]; P3, average of BALB/c and C57Bl/6, listed as GHDSPHKSGQNQQT) [fold]
TTM-001: AAV9 capsid variant comprising SPHSKA (SEQ ID NO: 941) in loop IV (protein) chain 1: MAADGYLPDWLEDNLSEGIREWWALKPGAPQPKANQQHQDNARGLVLPGYKYLGPGNGLDKGEPVNAADAAALEHDKAYDQQLKAGDNPYLKYNHADAEFQERLKEDTSFGGNLGRAVFQAKKRLLEPLGLVEEAAKTAPGKKRPVEQSPQEPDSSAGIGKSGAQPAKKRLNFGQTGDTESVPDPQPIGEPPAAPSGVGSLTMASGGGAPVADNNEGADGVGSSSGNWHCDSQWLGDRVITTSTRTWALPTYNNHLYKQISNSTSGGSSNDNAYFGYSTPWGYFDFNRFHCHFSPRDWQRLINNNWGFRPKRLNFKLFNIQVKEVTDNNGVKTIANNLTSTVQVFTDSDYQLPYVLGSAHEGCLPPFPADVFMIPQYGYLTLNDGSQAVGRSSFYCLEYFPSQMLRTGNNFQFSYEFENVPFHSSYAHSQSLDRLMNPLIDQYLYYLSKTINGSGSPHSKAQNQQTLKFSVAGPSNMAVQGRNYIPGPSYRQQRVSTTVTQNNNSEFAWPGASSWALNGRNSLMNPGPAMASHKEGEDRFFPLSGSLIFGKQGTGRDNVDADKVMITNEEEIKTTNPVATESYGQVATNHQSAQAQAQTGWVQNQGILPGMVWQDRDVYLQGPIWAKIPHTDGNFHPSPLMGGFGMKHPPPQILIKNTPVPADPPTAFNKDKLNSFITQYSTGQVSVEIEWELQKENSKRWNPEIQYTSNYYKSNNVEFAVNTEGVYSEPRPIGTRYLTRNL chain 2: GSGSPHSKAQNQQT	65.853	63.1	63.083	60.312	44.58	14.48	4,072 RLU	did not occur	a significant increase in expression relative to AAV9	703.3	1	a significant increase in expression relative to AAV9	43.5	–
TTM-002: AAV9 capsid variant comprising HDSPHK (SEQ ID NO: 2) in loop IV (protein) chain 1: MAADGYLPDWLEDNLSEGIREWWALKPGAPQPKANQQHQDNARGLVLPGYKYLGPGNGLDKGEPVNAADAAALEHDKAYDQQLKAGDNPYLKYNHADAEFQERLKEDTSFGGNLGRAVFQAKKRLLEPLGLVEEAAKTAPGKKRPVEQSPQEPDSSAGIGKSGAQPAKKRLNFGQTGDTESVPDPQPIGEPPAAPSGVGSLTMASGGGAPVADNNEGADGVGSSSGNWHCDSQWLGDRVITTSTRTWALPTYNNHLYKQISNSTSGGSSNDNAYFGYSTPWGYFDFNRFHCHFSPRDWQRLINNNWGFRPKRLNFKLFNIQVKEVTDNNGVKTIANNLTSTVQVFTDSDYQLPYVLGSAHEGCLPPFPADVFMIPQYGYLTLNDGSQAVGRSSFYCLEYFPSQMLRTGNNFQFSYEFENVPFHSSYAHSQSLDRLMNPLIDQYLYYLSKTINGHDSPHKSGQNQQTLKFSVAGPSNMAVQGRNYIPGPSYRQQRVSTTVTQNNNSEFAWPGASSWALNGRNSLMNPGPAMASHKEGEDRFFPLSGSLIFGKQGTGRDNVDADKVMITNEEEIKTTNPVATESYGQVATNHQSAQAQAQTGWVQNQGILPGMVWQDRDVYLQGPIWAKIPHTDGNFHPSPLMGGFGMKHPPPQILIKNTPVPADPPTAFNKDKLNSFITQYSTGQVSVEIEWELQKENSKRWNPEIQYTSNYYKSNNVEFAVNTEGVYSEPRPIGTRYLTRNL chain 2: GHDSPHKSGQNQQT	51.125	66.8	–	82.460	59.14	27.15	1,114 RLU	did not occur	a significant increase in expression relative to AAV9	366.6	1	a significant increase in expression relative to AAV9	13.8	66.792

From patent publication US20260250318A1, “COMPOSITIONS AND METHODS FOR CROSSING THE BLOOD BRAIN BARRIER” (VOYAGER THERAPEUTICS, INC., priority 2022, published 2026)
